Test results: the nanobody polyreactivity screen of Harvey et al. (2022)

Test: yeast display, Sf9 membrane polyspecificity reagent, FACS + sequencing; frameworks hold sequencing errors
Outline: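 A synthetic nanobody library was expressed on Saccharomyces cerevisiae BJ5465 by galactose induction for 36–48 hours. The library was stained for 1 hour at 4 °C with 10% biotinylated, detergent-solubilized Sf9 membrane reagent and enriched with streptavidin microbeads before FACS. Low and high (top ~1%) gates were set on anti-HA fluorescence for expression and streptavidin fluorescence for reagent binding, and each polyreactivity label reflects the gate of origin.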

Row | Sequence | polyreactivity (PSR sort gate)
1 | QVQLVESGGGLVQAGGSLRLSCAASGSIFFYYAMGWYRQAPGKERELVAAINSDGSTNYADSVKGRFTISRDNAKNTVYLQMNSLKPEDTAVYYCNADTPYYQGEYNYWGQGTQVTVSS | low polyreactivity
2 | QVQLVESGGGLVQAGGSLRLSCAASGSIFFYYAMGWYRQAPGKERELVATITSGGSTSYADSVKGRFTISRDNAKNTVYLQMNSLKPEDTAVYYCAARKVTKSTYNYWGQGTQVTVSS | low polyreactivity
3 | QVQLVESGGGLVQAGGSLRLSCAASGSIFGANAMGLYRQAPGKERELLATITLRDGSTYYADSVKGRFTISRDNAKNTVYLQRNSLKPEDTAVYYCATYYSAINYGCSKTILYDYWGQGTQVTVSS | low polyreactivity
4 | QVQLVESGGGLVQAGGSLRLSCAASGSIFGANAMGWYRQAPAKEWELVAAITRGGRTNYADSVKGRFTISRDNAKISVYLQMNSLKPEDTAVYYCNAAWGTGRWAGYISGGDWGQGTHVTVSS | high polyreactivity
5 | QVQLVESGGGLVQAGGSLRLSCAASGSIFGANAMGWYRQAPGKERELVAAISTRGGRTYYADSVKGRFTISRDIAKNTVYLQMNSLKPEDTAVYYCAAYSSYPEYRRGKYDYWGQGTQVTVSS | high polyreactivity
6 | QVQLVESGGGLVQAGGSLRLSCAASGSIFGANAMGWYRQAPGTVRELVAAISRRGGSTYYADSVKGRFTISRDNAKNTVHLQMNSLKPEDTAVYYCNTYPQSLGVKYGYWGQGTQVTVSS | high polyreactivity
7 | QVQLVESGGGLVQAGGSLRLSCAASGSIFGANGMGWYRQAPGKESELVAASTSGGSTTYADYVKGRFTISRDNAKNTVYLQINSLKPEDTAVYYCAADECTPYWPVDNFDYWGQGTQVTVSS | low polyreactivity
8 | QVQLVESGGGLVQAGGSLRLSCAASGSIFGAYAMGWYRQAPGKERELVAAISWRDGSTYYADSVKGRFTISRDNAKNTVYLQMNSLKPEDTAVYYCAAEYVYIFYDSDYWGQGTQVTVSS | high polyreactivity
9 | QVQLVESGGGLVQAGGSLRLSCAASGSIFGAYAMGWYRQAPGKERELVAVISRSGGRTYYADSVKGRFTISRDNAKNTVYLQMNSLKPVDTAVYYCAADTRYVQYDYWGQGTQVTVSS | high polyreactivity
10 | QVQLVESGGGLVQAGGSLRLSCAASGSIFGDNAMGWYRKAPGKERELVAGISSSGGRTYYADSVKGRFTISRDNAKNTVYLQMNSLKPEVTAVYYCAKEPGWGRRSTTAYDYCGQGTQVTVSS | low polyreactivity
11 | QVQLVESGGGLVQAGGSLRLSCAASGSIFGDNAMGWYRQAPGKERELVARISSGGNTYYADSVKGRFSISRDNAMNTVYLQMNSLKPEDTAVYYCAAAIIVRYKKFPYYYWGQGTQVTVSS | high polyreactivity
12 | QVQLVESGGGLVQAGGSLRLSCAASGSIFGDYAMGWYRQAPGKEREFVAGITRRGGRTYYADSVKGRFTISRDNAKNTVYLQMNSLKPEETAVYYCNAVYSSSLRSKYDYWGQGTQVTVSS | high polyreactivity
13 | QVQLVESGGGLVQAGGSLRLSCAASGSIFGDYAMGWYRQAPGKERELVAAITSSGGITYYADSVKGRFTISRDNAKNTVYLQMNSLKPEDTAVYYCAAYGYGSNYRYTGYYYWGQGTQVTVSS | low polyreactivity
14 | QVQLVESGGGLVQAGGSLRLSCAASGSIFGDYAMGWYRQAPGKERELVADISSGGSTTYADSVKGRFTISRDNAKNTVYLQMNSLKPEDTAVYYCNAERGVPYGYWGQGTQVTVSS | low polyreactivity
15 | QVQLVESGGGLVQAGGSLRLSCAASGSIFGDYVLGWYRQAPGKERELVASISESTDSTYYADSVKGRFTISRDNAKNTVYLQMNSLKPEDTAVYYCATAYPEWAVWGYDYWGQGTQVTVSS | low polyreactivity
16 | QVQLVESGGGLVQAGGSLRLSCAASGSIFGDYVMGWNRQAPGKERELVAAINRGGSTYYADSVKGRFTISRDNAKNTVYLQMNSLKPEDTAVYYCAAGYPSWYYGYPYDSWGQGSQVTVSS | low polyreactivity
17 | QVQLVESGGGLVQAGGSLRLSCAASGSIFGENAMGWYRQAPGKERELVAAITWSGASTYYADSVKGRFTISRDNAKNTVYLQMNSLKPEETAVYYCNADRYVRYSTFDYWGQGTQVTVSS | high polyreactivity
18 | QVQLVESGGGLVQAGGSLRLSCAASGSIFGEYAMGWYRQAPGKERELVAAINVNGGRTYYADSVKGRFTISRDNAKNTVYLQMNSLKPEDTAVYYCNARSYASYRQGNTYGSWGQGTQVTVSS | high polyreactivity
19 | QVQLVESGGGLVQAGGSLRLSCAASGSIFGEYTMGWYRQAPGKERELVAAISWNGGITYYADSVKGRFTISRDNAKNTVYLQMNSLKPEDTAVYYCAAETYPWSLFTYYSWGQGSQVTVSS | low polyreactivity
20 | QVQLVESGGGLVQAGGSLRLSCAASGSIFGFKVMGWYRQEPGKERELVAAITYSGGSTYYADSVKGRFTISRANAKNTVYIQMNSLKPEDTAVYYCAADTFTPYWWYSSLDEYWGQGTQVTVSS | high polyreactivity
21 | QVQLVESGGGLVQAGGSLRLSCAASGSIFGFNAMGWYRPAPGKERELVAGITSGDRTNYADSVKGRFTISRDNAKNTVYLQMNSLKPEDTAVYYCAARKYVFFKMYYWGQGTQVTVSS | low polyreactivity
22 | QVQLVESGGGLVQAGGSLRLSCAASGSIFGFNAMGWYRQAPGKERELVAAINNGGSTNYADSVKGRFTISRDNAKNTVYLQMNSLKPEDTAVYYCSARLNYIRRGYWGQGTQVTVSS | high polyreactivity

Row | Sequence | polyreactivity (PSR sort gate)
23 | QVQLVESGGGLVQAGGSLRLSCAASGSIFGFYAMGLYIQEPGKERELVAAITSGDSTHYADSVKGRFTISRDNAKNTVYLQMNSLKPEDTAVYYCATEYLYVDFFIRYDYWGQGTQVTVSS | low polyreactivity
24 | QVQLVESGGGLVQAGGSLRLSCAASGSIFGFYAMGWYRQAPGKERELVASISSSGDSTYYADSVKGRFTISRDNAKNTVYLQINSLKPEDTAVYYCAAVVYDIYGYEFDYWGQGTQVTVSS | low polyreactivity
25 | QVQLVESGGGLVQAGGSLRLSCAASGSIFGGNAMGWYRQAPGKERELVAVISWSGGSTYYADSVKGRFTISRDNAKNTVYVQMNSLKPEDTAVYYCATSSVAEAKYVTEGTFDYWGQGTQVTVSS | low polyreactivity
26 | QVQLVESGGGLVQAGGSLRLSCAASGSIFGGYAMGWYRPAPGKERELVAAIDESGGSTYYADSVKGRFTISRDNAKNTVYLQMNSLKPEDTAVYYCLVFRDDSGPGDYYYWGQGTQVTVSS | low polyreactivity
27 | QVQLVESGGGLVQAGGSLRLSCAASGSIFGGYAMGWYRQAPGKERELVAAISKTGGTTYYADSVKGRFTISRDNAKNTVYLQMNSLKPEDTAVYYCNAPKRYSGSAYGYGYWGQGTQVTVSS | high polyreactivity
28 | QVQLVESGGGLVQAGGSLRLSCAASGSIFGGYAMGWYRQAPGKERELVAAISRTGGRTYYADSVKGRFTISRDNAKNTVYLQMNSLKPEDTAVYYCAARVVHQSRYSYEYWGQGTQVTVSS | high polyreactivity
29 | QVQLVESGGGLVQAGGSLRLSCAASGSIFGGYAMGWYRQAPGKERELVAAISSGGSTYYADSVKGRFTISRDNAKNTVYLQMNSLKPEDTAVYYCATSTFAYRRNSYYYTRPRFGYWGQGTQVTVSS | high polyreactivity
30 | QVQLVESGGGLVQAGGSLRLSCAASGSIFGGYAMGWYRQAPGKERELVAAITSGGGSTYYADSVKGRFTISRDNAKNTVYLQMNSLKPEDTAVYYCAALQSHGVDYDYWGQGTQVTVSS | low polyreactivity
31 | QVQLVESGGGLVQAGGSLRLSCAASGSIFGGYAMGWYRQAPGKERELVASITASGGSTYYADSVKGRFTISRDNAKNTVYLQMNSLKPEDTAVYYCAAEVFSGYDYDYWGQGTQVTVSS | low polyreactivity
32 | QVQLVESGGGLVQAGGSLRLSCAASGSIFGGYGMGWYRQAPGKERELVAAITSGSSTYYADSVTGRFTISRDNAKNTVYLQMNSLKPEDTAVYYCAARPYPHSAYEGDYWGRGTQVTVSS | low polyreactivity
33 | QVQLVESGGGLVQAGGSLRLSCAASGSIFGGYGMGWYRQAPGKERELVAVITKRGGSTYYADSVKGRFTISRDNAKNTVYLQMNSLKPEDTAVYYCNKVGYYASVLGYDYWGQGTQVTVSS | high polyreactivity
34 | QVQLVESGGGLVQAGGSLRLSCAASGSIFGGYTMGWYRQAPGKERELVAAISARGGNTYYADSVKGRFTISRDNAKNTVYLQMNSLKPEDTAVYYCAKVRYTQSYRGYGYWGQGTQVTVSS | high polyreactivity
35 | QVQLVESGGGLVQAGGSLRLSCAASGSIFGHNTMGWYRQPPGKERELVAAITWNGGRTYYADSVKGRFTISRDNAKNTVYLQMNSLKPEDTAVYYCNAVVKTYGYKAHRYPSSRLNYWGQGTQVTVSS | high polyreactivity
36 | QVQLVESGGGLVQAGGSLRLSCAASGSIFGHYAMGWYRQAPGKERELVAAISWSGTSTYYADSVKGRFTISRDNAKNTVYLQMNSLKPEDTAVYYCAAEASYNYGKYVVTYDYWGQGTQVTVSS | high polyreactivity
37 | QVQLVESGGGLVQAGGSLRLSCAASGSIFGIYAMGWYRQAPGKERELVATITYSGGTTYADSVKGRFTISRDNAKNTVYLQMNSLNPEDTAVYYCAAGGDYAYDCWGQGTQVTVSS | low polyreactivity
38 | QVQLVESGGGLVQAGGSLRLSCAASGSIFGKNAMGWYRQAPGKEREFVAAITNTGGDTYYADSVKGRFTISRDNAKNNVYLQMNSLKPEDTAVYYCNARKRKTSLYKFNYWGQGTQVTVSS | high polyreactivity
39 | QVQLVESGGGLVQAGGSLRLSCAASGSIFGKYAMGWYRQAPGKERELVAAISWSGGSTYYADSVKGRFTISRDNAKNTVYLQMNSLKPEDTAVYYCAATFRGTFRRIWTDTRAYDYWGQGTQVTVSS | high polyreactivity
40 | QVQLVESGGGLVQAGGSLRLSCAASGSIFGKYAMGWYRQAPGKERELVAAITGRGASTYYADSVKGRFTISRDNAKNTVYLQMNSLKPVDTAVYYCAARASWYYVYPYDYWGQGTQVTVSS | low polyreactivity
41 | QVQLVESGGGLVQAGGSLRLSCAASGSIFGLNAMGWYRPAHGKETELVAAISGGSTNYADSVKGRFTISRDNAKNTVYLQMNSLKTDDTAVYYCAARARRRYYYWGQGTQVTVSS | high polyreactivity
42 | QVQLVESGGGLVQAGGSLRLSCAASGSIFGLNAMGWYRPEPGQESALVAAISYSGGTTYYADSVKGRFTISRDNAKNSVYLQMNSLKPEDTAVYYCATRARYVGGYKYNYWGQGTQVTVSS | high polyreactivity
43 | QVQLVESGGGLVQAGGSLRLSCAASGSIFGLNAMGWYRQAPGKERELVAAISCGSTNYADSVKGRFTISRDNAKYTVYLQMNSLKPEDTAVYYCAARARRRYYYWGQGTQVTVSS | high polyreactivity
